Experimental data: patent US20200315149

Key:
[1] = target: recombinant human pro-HGF, P14210
[2] = target: prekallikrein purified from human plasma, P03952
[3] = target: T1, full-length coagulation factor XII purified from human plasma, P00748
T1 chain: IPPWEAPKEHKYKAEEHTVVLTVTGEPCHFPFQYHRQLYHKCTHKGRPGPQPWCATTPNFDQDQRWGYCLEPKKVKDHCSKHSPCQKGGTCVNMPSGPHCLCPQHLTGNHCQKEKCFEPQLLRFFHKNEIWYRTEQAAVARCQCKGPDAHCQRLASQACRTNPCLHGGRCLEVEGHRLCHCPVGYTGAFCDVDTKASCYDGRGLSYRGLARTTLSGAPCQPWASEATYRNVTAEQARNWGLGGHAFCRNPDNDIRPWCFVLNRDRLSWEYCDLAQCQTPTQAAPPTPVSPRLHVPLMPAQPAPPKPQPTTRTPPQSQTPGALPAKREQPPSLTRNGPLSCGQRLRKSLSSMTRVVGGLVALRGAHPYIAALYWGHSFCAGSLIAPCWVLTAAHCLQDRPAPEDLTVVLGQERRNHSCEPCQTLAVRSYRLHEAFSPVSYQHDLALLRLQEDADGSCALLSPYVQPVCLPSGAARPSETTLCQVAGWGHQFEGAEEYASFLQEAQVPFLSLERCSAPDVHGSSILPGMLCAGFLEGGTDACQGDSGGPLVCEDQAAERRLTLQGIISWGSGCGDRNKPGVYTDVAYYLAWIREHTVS

Sequence of recombinant human pro-HGF, P14210 (P14210 32-728): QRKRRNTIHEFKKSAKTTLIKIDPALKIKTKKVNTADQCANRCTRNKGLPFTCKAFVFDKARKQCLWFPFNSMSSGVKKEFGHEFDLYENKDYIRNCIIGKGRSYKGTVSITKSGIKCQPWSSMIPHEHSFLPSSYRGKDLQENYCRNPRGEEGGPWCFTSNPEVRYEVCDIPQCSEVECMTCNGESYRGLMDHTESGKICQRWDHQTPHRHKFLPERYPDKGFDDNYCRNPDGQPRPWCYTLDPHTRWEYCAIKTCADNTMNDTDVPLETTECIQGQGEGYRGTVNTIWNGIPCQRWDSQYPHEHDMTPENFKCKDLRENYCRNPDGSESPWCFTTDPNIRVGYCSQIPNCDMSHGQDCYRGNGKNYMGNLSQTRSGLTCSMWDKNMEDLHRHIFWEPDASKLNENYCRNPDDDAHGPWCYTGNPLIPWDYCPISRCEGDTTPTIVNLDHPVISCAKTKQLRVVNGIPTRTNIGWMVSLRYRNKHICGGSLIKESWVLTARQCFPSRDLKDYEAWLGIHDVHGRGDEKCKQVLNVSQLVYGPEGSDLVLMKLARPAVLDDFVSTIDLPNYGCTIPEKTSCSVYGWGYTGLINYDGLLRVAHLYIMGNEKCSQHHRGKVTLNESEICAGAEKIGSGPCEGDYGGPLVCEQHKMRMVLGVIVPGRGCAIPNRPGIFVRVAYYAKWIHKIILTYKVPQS
Sequence of prekallikrein purified from human plasma, P03952 (P03952 20-638): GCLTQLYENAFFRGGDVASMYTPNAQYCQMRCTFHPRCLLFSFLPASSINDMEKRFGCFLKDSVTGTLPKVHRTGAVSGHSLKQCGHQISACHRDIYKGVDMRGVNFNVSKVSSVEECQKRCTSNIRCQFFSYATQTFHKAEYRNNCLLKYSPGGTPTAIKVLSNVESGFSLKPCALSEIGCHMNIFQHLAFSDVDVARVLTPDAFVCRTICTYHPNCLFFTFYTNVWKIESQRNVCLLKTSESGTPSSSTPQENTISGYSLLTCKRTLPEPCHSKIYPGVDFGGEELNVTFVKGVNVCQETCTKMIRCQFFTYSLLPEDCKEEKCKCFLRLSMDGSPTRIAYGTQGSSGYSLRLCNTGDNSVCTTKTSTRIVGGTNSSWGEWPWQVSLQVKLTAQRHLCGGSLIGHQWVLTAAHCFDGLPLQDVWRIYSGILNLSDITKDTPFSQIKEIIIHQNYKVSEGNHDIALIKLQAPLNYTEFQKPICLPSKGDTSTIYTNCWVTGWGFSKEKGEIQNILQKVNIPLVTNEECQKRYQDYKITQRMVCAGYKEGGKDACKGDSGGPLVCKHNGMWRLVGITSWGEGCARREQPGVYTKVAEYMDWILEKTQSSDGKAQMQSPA

B1: two-chain tissue plasminogen activator (protein)
chain: SYQVICRDEKTQMIYQQHQSWLRPVLRSNRVEYCWCNSGRAQCHSVPVKSCSEPRCFNGGTCQQALYFSDFVCQCPEGFAGKCCEIDTRATCYEDQGISYRGTWSTAESGAECTNWNSSALAQKPYSGRRPDAIRLGLGNHNYCRNPDRDSKPWCYVFKAGKYSSEFCSTPACSEGNSDCYFGNGSAYRGTHSLTESGASCLPWNSMILIGKVYTAQNPSAQALGLGKHNYCRNPDGDAKPWCHVLKNRRLTWEYCDVPSCSTCGLRQYSQPQFRIKGGLFADIASHPWQAAIFAKHRRSPGERFLCGGILISSCWILSAAHCFQERFPPHHLTVILGRTYRVVPGEEEQKFEVEKYIVHKEFDDDTYDNDIALLQLKSDSSRCAQESSVVRTVCLPPADLQLPDWTECELSGYGKHEALSPFYSERLKEAHVRLYPSSRCTSQHLLNRTVTDNMLCAGDTRSGGPQANLHDACQGDSGGPLVCLNDGRMTLVGIISWGLGCGQKDVPGVYTKVTNYLDWIRDNMRP
- cleavage of pro-HGF, western blot [1]: other serine proteases found in the brain such as thrombin and tissue plasminogen activator did not convert pro-HGF to HGF

B2: recombinant human hepatocyte growth factor activator (protein)
chain: QPGGNRTESPEPNATATPAIPTILVTSVTSETPATSAPEAEGPQSGGLPPPPRAVPSSSSPQAQALTEDGRPCRFPFRYGGRMLHACTSEGSAHRKWCATTHNYDRDRAWGYCVEATPPPGGPAALDPCASGPCLNGGSCSNTQDPQSYHCSCPRAFTGKDCGTEKCFDETRYEYLEGGDRWARVRQGHVEQCECFGGRTWCEGTRHTACLSSPCLNGGTCHLIVATGTTVCACPPGFAGRLCNIEPDERCFLGNGTGYRGVASTSASGLSCLAWNSDLLYQELHVDSVGAAALLGLGPHAYCRNPDNDERPWCYVVKDSALSWEYCRLEACESLTRVQLSPDLLATLPEPASPGRQACGRRHKKRTFLRPRIIGGSSSLPGSHPWLAAIYIGDSFCAGSLVHTCWVVSAAHCFSHSPPRDSVSVVLGQHFFNRTTDVTQTFGIEKYIPYTLYSVFNPSDHDLVLIRLKKKGDRCATRSQFVQPICLPEPGSTFPAGHKCQIAGWGHLDENVSGYSSSLREALVPLVADHKCSSPEVYGADISPNMLCAGYFDCKSDACQGDSGGPLACEKNGVAYLYGIISWGDGCGRLHKPGVYTRVANYVDWINDRIRPPRRLVAPS
- cleavage of pro-HGF, western blot [1]: We confirmed the ability of hepatocyte growth factor activator (HGFA) and βFXIIa to cleave pro-HGF

B3: βFXIIa (protein)
chain: NGPLSCGQRLRKSLSSMTRVVGGLVALRGAHPYIAALYWGHSFCAGSLIAPCWVLTAAHCLQDRPAPEDLTVVLGQERRNHSCEPCQTLAVRSYRLHEAFSPVSYQHDLALLRLQEDADGSCALLSPYVQPVCLPSGAARPSETTLCQVAGWGHQFEGAEEYASFLQEAQVPFLSLERCSAPDVHGSSILPGMLCAGFLEGGTDACQGDSGGPLVCEDQAAERRLTLQGIISWGSGCGDRNKPGVYTDVAYYLAWIREHTVS
- cleavage of pro-HGF, western blot [1]: We confirmed the ability of hepatocyte growth factor activator (HGFA) and βFXIIa to cleave pro-HGF

B4: kallikrein-activated FXII297-596 (protein)
chain: MPAQPAPPKPQPTTRTPPQSQTPGALPAKREQPPSLTRNGPLSCGQRLRKSLSSMTRVVGGLVALRGAHPYIAALYWGHSFCAGSLIAPCWVLTAAHCLQDRPAPEDLTVVLGQERRNHSCEPCQTLAVRSYRLHEAFSPVSYQHDLALLRLQEDADGSCALLSPYVQPVCLPSGAARPSETTLCQVAGWGHQFEGAEEYASFLQEAQVPFLSLERCSAPDVHGSSILPGMLCAGFLEGGTDACQGDSGGPLVCEDQAAERRLTLQGIISWGSGCGDRNKPGVYTDVAYYLAWIREHTVS
- cleavage of prekallikrein (200 nM) by activated FXII297-596 (225 nM), western blot for kallikrein heavy chain [2]: activated FXII297-596 converted prekallikrein to kallikrein as seen through the generation of kallikrein heavy chain
- cleavage of pro-HGF (25 ug/mL) by activated FXII297-596 (225 nM), western blot with anti-HGF [1]: kallikrein-activated FXII297-596 cleaved pro-HGF to the active two-chain form

B5: recombinant human FXII297-596 (protein)
chain: MPAQPAPPKPQPTTRTPPQSQTPGALPAKREQPPSLTRNGPLSCGQRLRKSLSSMTRVVGGLVALRGAHPYIAALYWGHSFCAGSLIAPCWVLTAAHCLQDRPAPEDLTVVLGQERRNHSCEPCQTLAVRSYRLHEAFSPVSYQHDLALLRLQEDADGSCALLSPYVQPVCLPSGAARPSETTLCQVAGWGHQFEGAEEYASFLQEAQVPFLSLERCSAPDVHGSSILPGMLCAGFLEGGTDACQGDSGGPLVCEDQAAERRLTLQGIISWGSGCGDRNKPGVYTDVAYYLAWIREHTVS
- cleavage of prekallikrein, western blot [2]: no cleavage of prekallikrein was observed with non-activated FXII297-596

B6: cathepsin K (protein)
chain: APDSVDYRKKGYVTPVKNQGQCGSCWAFSSVGALEGQLKKKTGKLLNLSPQNLVDCVSENDGCGGGYMTNAFQYVQKNRGIDSEDAYPYVGQEESCMYNPTGKAAKCRGYREIPEGNEKALKRAVARVGPVSVAIDASLTSFQFYSKGVYYDESCNSDNLNHAVLAVGYGIQKGNKHWIIKNSWGENWGNKGYILMARNKNNACGIANLASFPKM
- cleavage of FXII (1.25 uM) by cathepsin K (100 nM), non-reducing SDS-PAGE with Coomassie staining [3]: incubation of full-length FXII with cathepsin K generated stable FXII fragments with sizes supporting cleavage between L296 and M297

B7: kallikrein-activated FXII (protein)
chain: IPPWEAPKEHKYKAEEHTVVLTVTGEPCHFPFQYHRQLYHKCTHKGRPGPQPWCATTPNFDQDQRWGYCLEPKKVKDHCSKHSPCQKGGTCVNMPSGPHCLCPQHLTGNHCQKEKCFEPQLLRFFHKNEIWYRTEQAAVARCQCKGPDAHCQRLASQACRTNPCLHGGRCLEVEGHRLCHCPVGYTGAFCDVDTKASCYDGRGLSYRGLARTTLSGAPCQPWASEATYRNVTAEQARNWGLGGHAFCRNPDNDIRPWCFVLNRDRLSWEYCDLAQCQTPTQAAPPTPVSPRLHVPLMPAQPAPPKPQPTTRTPPQSQTPGALPAKREQPPSLTRNGPLSCGQRLRKSLSSMTRVVGGLVALRGAHPYIAALYWGHSFCAGSLIAPCWVLTAAHCLQDRPAPEDLTVVLGQERRNHSCEPCQTLAVRSYRLHEAFSPVSYQHDLALLRLQEDADGSCALLSPYVQPVCLPSGAARPSETTLCQVAGWGHQFEGAEEYASFLQEAQVPFLSLERCSAPDVHGSSILPGMLCAGFLEGGTDACQGDSGGPLVCEDQAAERRLTLQGIISWGSGCGDRNKPGVYTDVAYYLAWIREHTVS
- cleavage of pro-HGF (25 ug/mL) by kallikrein-activated FXII (50 nM), western blot [1]: Pro-HGF was cleaved by kallikrein-activated FXII297-596 and kallikrein-activated FXII (arrows), but not by inactivated kallikrein alone
